Test results from patent publication US20230079150A1, “METHODS FOR PREVENTION OR TREATMENT OF VIRUS-INDUCED ORGAN INJURY OR FAILURE WITH IL-22 DIMER” (priority 2020, published 2023).
Like-named read-outs stand apart in the source and are kept apart here.

Legend:
mouse IL-22 = experiment: LPS acute lung injury mouse model: endogenous mouse IL-22 ELISA in BAL; format: in vivo, mice; settings: low-dose LPS; F-652 4 μg tail vein; day 4; sham non-detectable
Procedure: (§1) After approval from the Tulane University, Institutional Animal Care and Use Committee (protocol ID 607), equal numbers of male and female, 6-8 week old C57BL/6 mice (Charles River Laboratories, Cambridge, Mass.) were given acute lung injury (ALI) via intra-tracheally administered LPS. After obtaining appropriate depth of anesthesia using isoflurane, the high-dose LPS group (HDG) received 100 μg of LPS administered intra-tracheally. Approximately 30 minutes after LPS administration, 4 μg of F-652 was administered via tail vein injection (n=11), then compared to animals receiving sham injection (n=8) with phosphate-buffered saline (PBS). In the low-dose LPS group (LDG), 33.3 μg of LPS was administered intra-tracheally. F-652 was again administered at 30 minutes (n=9) and compared to sham injected animals (n=9). […]
(§2) The BAL fluid was then centrifuged at 500×gravity for 5 minutes. […] To quantify protein in the BAL supernatant, a Bradford protein assay (Bio-Rad Laboratories) was performed. Protein was quantified by measuring absorbance at 595 nm on a BMG Labtech FLUOstar Optima plate reader. […] Human IL-22 was measured using an IL-22 Human ELISA kit (ThermoFisher Scientific). Mouse IL-22 was measured using an IL-22 Mouse/Rat Quantikine ELISA kit (R&D Systems).

C57BL/6 mice [1] = experiment: LPS acute lung injury mouse model: endothelial glycocalyx intensity in alveolar capillaries; format: in vivo
Procedure: as §1
Paraformaldehyde-fixed lung segments were flash-frozen in Optimal Cutting Temperature (O.C.T) compound (Sakura) and sectioned on a cryostat. […] Glycocalyx and nuclei (4′,6-diamidino-2-phenylindole) were imaged on an Olympus BX51 fluorescence microscope under identical conditions. ImageJ software was used to quantify glycocalyx fluorescence intensity in the alveolar capillaries from a minimum of 20 regions of interest from 3 mice per condition.

C57BL/6 mice [2] = experiment: LPS acute lung injury mouse model: lung RNA-seq pathway analysis; format: in vivo; settings: high-dose LPS injury; lung tissue
Procedure: as §1, with “(PBS).” for “(PBS). In the low-dose LPS group (LDG), 33.3 μg of LPS was administered intra-tracheally. F-652 was again administered at 30 minutes (n=9) and compared to sham injected animals (n=9).”
Lung tissue was homogenized in Trizol buffer (Life Technologies) and total RNA extraction was performed according to Trizol manufacturer's instructions. […] RNA quantity and quality were assessed using NanoDrop and Agilent RNA ScreenTape with Agilent 4150 TapeStation system. SMART-Seq Stranded total RNA sample prep kit (Takara Bio USA, Inc.) was used for library preparation as specified in the user manual, followed by Agilent DNA 1000 kit validation with Agilent 4150 TapeStation system and quantification by Qubit 2.0 fluorometer. […] Cluster generation and 1×75 bp single read single-indexed sequencing was performed by High-Output kit v2.5 (75 cycles) on Illumina NextSeq 550. Raw reads were processed and mapped. […]

[3] = LPS acute lung injury mouse model: human IL-22 ELISA in BAL; format: in vivo, mice; settings: high-dose LPS; F-652 4 μg tail vein; day 4; sham non-detectable
Procedure: as §1, §2

C57BL/6 mice [4] = experiment: LPS acute lung injury mouse model: BAL cell counts; format: in vivo; settings: for BAL total cell counts: F-652 4 μg tail vein at 30 min
Procedure: After approval from the Tulane University, Institutional Animal Care and Use Committee (protocol ID 607), equal numbers of male and female, 6-8 week old C57BL/6 mice (Charles River Laboratories, Cambridge, Mass.) were given acute lung injury (ALI) via intra-tracheally administered LPS. After obtaining appropriate depth of anesthesia using isoflurane, the high-dose LPS group (HDG) received 100 μg of LPS administered intra-tracheally. Approximately 30 minutes after LPS administration, 4 μg of F-652 was administered via tail vein injection (n=11), then compared to animals receiving sham injection (n=8) with phosphate-buffered saline (PBS). In the low-dose LPS group (LDG), 33.3 μg of LPS was administered intra-tracheally. F-652 was again administered at 30 minutes (n=9) and compared to sham injected animals (n=9). The Interleukin-22:Fc (F-652) protein is a recombinant fusion protein (F-652) (Evive Biotech, Shanghai, China) with two human IL-22 molecules linked to the Fc portion of human immunoglobulin G2, which extends the half-life of the molecule.
Euthanasia and bronchoalveolar lavage (BAL) was carried out on post-injury day 4. After obtaining appropriate levels of anesthesia with inhaled isoflurane, the trachea was cannulated using a 26 gauge needle and BAL was performed with three successive washes using 1 mL of PBS. Next, a small segment of the left lower lobe was removed and saved for RNA isolation. Finally, 1 cc of 4% paraformaldehyde was injected to the lung for fixation.
The BAL fluid was then centrifuged at 500×gravity for 5 minutes. Cells were obtained from the BAL after centrifuge and cell counts performed. Cells were then affixed to glass slides and stained with Wright's stain. To quantify protein in the BAL supernatant, a Bradford protein assay (Bio-Rad Laboratories) was performed. Protein was quantified by measuring absorbance at 595 nm on a BMG Labtech FLUOstar Optima plate reader. In addition, the BAL supernatant was used to measure pro-inflammatory cytokines using a Milliplex Mouse Cytokine/Chemokine Magnetic Bead Panel (Millipore Sigma). The 32 cytokines measured included Eotaxin, Granulocyte Colony-Stimulating Factor (G-CSF), Granulocyte-Monocyte Colony-Stimulating Factor (GM-CSF), Interferon-γ (IFN-γ), Interleukin-1α (IL-1α), IL-1, IL-2, IL-3, IL-4, IL-5, IL-6, IL-7, IL-9, IL-10, IL-12 (p40 segment), IL-12 (p70 segment), IL-13, IL-15, IL-17, Interferon-γ induced protein 10 (IP-10), keratinocyte chemoattractant (KC), leukemia inhibitory factor (LIF), lipopolysaccharide-induced CXC chemokine (LIX), monocyte chemoattractant protein-1 (MCP-1), macrophage colony-stimulating factor (M-CSF), monokine induced by gamma-interferon (MIG), MIP-1α, macrophage inflammatory protein-1β/CCL4 (MIP-1β), MIP-2, regulated upon activation, normal T-cell expressed and presumably secreted (RANTES), tumor necrosis factor-α (TNF-α), vascular endothelial growth factor (VEGF). Human IL-22 was measured using an IL-22 Human ELISA kit (ThermoFisher Scientific). Mouse IL-22 was measured using an IL-22 Mouse/Rat Quantikine ELISA kit (R&D Systems).

C57BL/6 mice [5] = experiment: LPS acute lung injury mouse model: BAL protein (Bradford assay); format: in vivo; settings: F-652 4 μg i.v., day 4
Procedure: as §1, §2

[6] = tested on: H1N1 influenza (A/PR8 strain)
C57BL/6 mice [7] = experiment: LPS acute lung injury mouse model: histopathology score; format: in vivo
Procedure: as §1
Immediately after sacrifice, lung tissue from the right lower lobe was fixed in 4% paraformaldehyde and cut into sections. […] Lung injury induced by LPS was assessed by a blinded reviewer with a numerical scoring scale ranging from 0-4. Regions of lung injury in sections were scored for the extent of intimal thickening, alveolitis, and the presence of proteinaceous material in the alveolar space. […]

B1: F-652: recombinant IL-22 dimer consisting of two monomeric subunits each comprising a sequence shown in SEQ ID NO: 24 (protein)
chain 1: APISSHCRLDKSNFQQPYITNRTFMLAKEASLADNNTDVRLIGEKLFHGVSMSERCYLMKQVLNFTLEEVLFPQSDRFQPYMQEVVPFLARLSNRLSTCHIEGDDLHIQRNVQKLKDTVKKLGESGEIKAIGELDLLFMSLRNACIGSGGGSGGGGSGGGGSVECPPCPAPPVAGPSVFLFPPKPKDTLMISRTPEVTCVVVDVSHEDPEVQFNWYVDGVEVHNAKTKPREEQFNSTFRVVSVLTVVHQDWLNGKEYKCKVSNKGLPASIEKTISKTKGQPREPQVYTLPPSREEMTKNQVSLTCLVKGFYPSDIAVEWESNGQPENNYKTTPPMLDSDGSFFLYSKLTVDKSRWQQGNVFSCSVMHEALHNHYTQKSLSLSPGK
chain 2: B1 chain 1
modifications: homodimer
endogenous mouse IL-22 level in BAL (mouse IL-22): 1.22 pg/mL
endothelial glycocalyx intensity, F-652 treated vs sham (C57BL/6 mice [1]; high dose LPS injury): no significant difference
endothelial glycocalyx intensity in alveolar capillaries (C57BL/6 mice [1]; low dose LPS injury, sham 63.7): 80.0 Arbitrary Units
Macrophage Inflammatory Protein-1β (CCL4) expression (RNA-seq) (C57BL/6 mice [2]): decrease
Tnc, COL1a1, Col6a3 and Col1a2 expression (RNA-seq) (C57BL/6 mice [2]): increased
human IL-22 level in BAL [3]: 27.41 pg/mL
BAL total cell counts (C57BL/6 mice [4]; high-dose LPS (100 μg intra-tracheal), day 4, sham 3.15×10^6): 5.40×10^5 cells
BAL macrophage counts (C57BL/6 mice [4]; high-dose LPS, F-652 4 μg tail vein, day 4, sham 2.72×10^6): 1.21×10^5 cells
BAL neutrophil counts (C57BL/6 mice [4]; high-dose LPS, F-652 4 μg tail vein, day 4, sham 8.99×10^5): 3.69×10^4 cells
BAL lymphocyte counts (C57BL/6 mice [4]; high-dose LPS, F-652 4 μg tail vein, day 4, sham 213,225): 2,163 cells
BAL total cell counts (C57BL/6 mice [4]; low-dose LPS (33.3 μg intra-tracheal), post-injury day 4, sham 433,889): 364,444 cells
BAL lymphocyte count (C57BL/6 mice [4]; low-dose LPS, F-652 4 μg tail vein, day 4, sham 6,556): 1,864 cells
BAL neutrophil count (C57BL/6 mice [4]; low-dose LPS, F-652 4 μg tail vein, day 4, sham 6,869): 1,653 cells
BAL macrophage count (C57BL/6 mice [4]; low-dose LPS, F-652 4 μg tail vein, day 4, sham 429,262): 290,611 cells
BAL protein (C57BL/6 mice [5]; high-dose LPS injury, sham 0.38): 0.55 µg/µL
BAL protein (C57BL/6 mice [5]; low-dose LPS injury, sham 0.25): 0.15 µg/µL
mice lost during the treatment phase ([6]; aged mice, Days 21-64 post-infection, F-652 200 μg/kg once weekly for 3 weeks, no PBS treated mice lost): 3 mice
mice lost during the treatment phase ([6]; aged mice, F-652 200 μg/kg once weekly, 6-week treatment group): 2 mice
mice lost during the treatment phase ([6]; young groups, F-652 200 μg/kg once weekly): no mice were lost
body weight, F-652 vs PBS treatment groups ([6]; young or aged mice, Days 21-64 post-infection): no notable differences
histopathology injury score (scale 0-4) (C57BL/6 mice [7]; high-dose LPS injury, sham 2.0): 1.0
histopathology scores, F-652 treated vs sham (C57BL/6 mice [7]; low dose LPS injury): did not show any difference
